Data taken from article PMC12373895.

Legend:
Experiment in all cases: ELONA
[1] = target: T1, ERA GTPase (Staphylococcus aureus, UniProt Q2FY06 1-299)
T1 sequence: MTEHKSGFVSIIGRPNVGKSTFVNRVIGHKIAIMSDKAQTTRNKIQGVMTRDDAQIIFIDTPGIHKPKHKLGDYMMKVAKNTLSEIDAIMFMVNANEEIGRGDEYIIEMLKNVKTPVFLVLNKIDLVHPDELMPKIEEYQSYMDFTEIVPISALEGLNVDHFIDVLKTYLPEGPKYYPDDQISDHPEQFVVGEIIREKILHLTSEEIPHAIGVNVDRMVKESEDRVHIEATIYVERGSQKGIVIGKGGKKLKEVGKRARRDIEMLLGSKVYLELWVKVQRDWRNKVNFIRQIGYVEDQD

[2] = target: T2, 1F8 (Chagas antigenic protein) (Trypanosoma cruzi, UniProt P07749 1-211)
T2 sequence: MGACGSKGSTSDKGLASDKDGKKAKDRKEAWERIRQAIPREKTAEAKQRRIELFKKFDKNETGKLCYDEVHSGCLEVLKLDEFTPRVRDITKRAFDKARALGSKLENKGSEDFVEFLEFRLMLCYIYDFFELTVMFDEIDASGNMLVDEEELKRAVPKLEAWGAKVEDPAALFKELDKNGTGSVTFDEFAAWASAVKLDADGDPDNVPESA

[3] = target: T1, ERA GTPase; remark: listed apart in the source
[4] = target: T3, ERA deltaKH (Staphylococcus aureus, UniProt Q2FY06 1-202)
T3 sequence: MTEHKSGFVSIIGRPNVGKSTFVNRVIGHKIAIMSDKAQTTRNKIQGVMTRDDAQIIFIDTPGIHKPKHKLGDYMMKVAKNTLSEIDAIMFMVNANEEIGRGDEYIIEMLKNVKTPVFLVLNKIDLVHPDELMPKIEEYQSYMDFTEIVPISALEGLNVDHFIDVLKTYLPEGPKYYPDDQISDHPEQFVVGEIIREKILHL

## TACTAGCCCTACCTGTACTCTCGAGCCGATTTTAAGGATC (ssDNA) [AptERA 2 (40 nt)]
[1]
  apparent K (half saturation): 185 ± 3 nM
[2]
  binding result: no binding
[3]
  Kd: 243 ± 16 nM
[4]
  binding result: no binding
